Reference: paper PMC8986121

Key:
[1] = target: Glu49; assay: NMR; details: 300 K, not stated (50 mM phosphate buffers), 50 mM phosphate buffers at different pH, micelle-bound
[2] = target: Glu59; assay: NMR; details: 300 K, not stated (50 mM phosphate buffers), 50 mM phosphate buffers at different pH, micelle-bound
[3] = L2 peptide free (no L1 or M peptide)
[4] = L2 peptide in the presence of the GldL TMH1 (L1) and GldM TMH (M) peptides at 1:1:1 molar ratio

KKVMLSIGLLTEALIFALSAFEPVKK was tested, and the pKa [1, 3] was 5.54 ± 0.04, the pKa [1, 4] was 5.83 ± 0.02 and the pKa [2, 3] was 5.65 ± 0.13. The pKa [2, 4] was 5.83 ± 0.02.
